The subject of this series is MS2 coat protein. Kind of series: apparent KD of MS2 coat protein; designed switch direction (-1 OFF switch, 1 ON switch): -1; higher = weaker reporter binding. The method in brief: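 The reported apparent KD is a per-design median over clusters, from curve fits of normalised cluster fluorescence. Protein titrations used SNAP-549-labelled MS2 coat protein, doubled from 0.7 or 1.5 nM to 3 µM, in Tris-HCl pH 7.5 buffer with KCl, MgCl2, BSA, DTT, tRNA and Tween-20, with no input, 200 uM small-molecule ligand, or an oligonucleotide input. The RNA switches were transcribed on Illumina chips by stalled E. coli RNA polymerase.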

Setting [1] is: input ligand: microRNA oligo, concentration not stated.
The mark [2] stands for this setting: Eterna round: R95, input ligand: microRNA oligo, concentration not stated.
The mark [3] stands for this setting: Eterna round: R95, input ligand: FMN 200 uM.
[4] abbreviates: Eterna round: R95, input ligand: none.

For the sequence “CUAAAUCAUGUAGGAUAUGCGUGGCAAAGCUAUGCAGAAGGACAUGAGGAUCACCCAUGUGCUUCCGUCUGAGUACAGACGGUA [Mat - Exclusion NG 1 - Mod of JL - D22] (Eterna round: R96, puzzle: Exclusion NG 1)”, the “apparent KD of MS2 coat protein” value stood at 622 nM (input ligand: FMN 200 uM), 72.9 nM under setting [1] and 98.2 nM (input ligand: none).
With “CUAAUGUAUCAGGAUAUGAUUAUAUGUGUUGGAUCAGAAGGGAUAACAUGAGGAUCACCCAUGUUGUGGAGUGA [JR_Ex6_Sub036] (Eterna round: R97, puzzle: Exclusion 6)”, the “apparent KD of MS2 coat protein” value turned out to be 202 nM (input ligand: FMN 200 uM) and 234 nM (input ligand: none).
On the same counts, the results for “CUAAUUCGAGGAUAUGCAAUGGAGUCUUUAAUAUAGUUCUCACAUGAGGAUCACCCAUGUAGAAGGCGAGCGGG [Eternabot (L1) Solution 50] (Eterna round: R97, puzzle: Exclusion 2)” are 115 nM and 53.1 nM.
For “CUACUACAUGAGGAUCACCCAUGUGAGGAUAUCAGUGGUGCUGCUAGGUAGUCCGGACUGAGAAGGCGCAUAGU [Mod-Malcom] (Eterna round: R97, puzzle: Exclusion 1)” the same measures were 43.1 nM and 52.8 nM.
For “CUAGACGGAGGAUAUACGAGAUCGAAAGAUCGGCGAUCCCUACAUGAGGAUCACCCAUGUAGAAGGCUGUUUAG [Mod 19 - Jieux - Exclusion 2] (Eterna round: R97, puzzle: Exclusion 2)” the same measures were 69.9 nM and 16.2 nM.
Regarding “CUAGCGGAUGUAGGAUAUCGGACUGUUUCAGUCUGAGAAGGACAUGAGGAUCACCCAUGUAUUGCUGCGUGAGUAGCACGCUAG [JL ENG1 3.97] (Eterna round: R96, puzzle: Exclusion NG 1)”, the “apparent KD of MS2 coat protein” value under setting [1] is 17.4 nM.
Consider “CUAGCGUAUGUAGGAUAUCGGACUGUUUCAGUCUGAGAAGGACAUGAGGAUCACCCAUGUAUAGCUACGUGAGUAGCUCGCUAG [JL ENG1 3.94] (Eterna round: R96, puzzle: Exclusion NG 1)”, for which the “apparent KD of MS2 coat protein” value under setting [1] is 17.2 nM.
On to “CUAGCUAUUGUAGGAUAUCGAUGUGUUUCACAUCGAGAAGGACAUGAGGAUCACCCAUGUGAAGGAUCGUGAGAUCCAAGCUAG [JL ENG1 3.77] (Eterna round: R96, puzzle: Exclusion NG 1)”, for which the “apparent KD of MS2 coat protein” value runs as follows: (input ligand: FMN 200 uM) 128 nM; under setting [1], 25.1 nM; (input ligand: none) 24.1 nM.
As for “CUAGUAUAUCAGGAUAUGAUUUUAUAUAGUUGGUCAGAAGGGAUGACAUGAGGAUCACCCAUGUUAAGGAGUGA [JR_Ex6_Sub043] (Eterna round: R97, puzzle: Exclusion 6)”, the “apparent KD of MS2 coat protein” value (input ligand: FMN 200 uM) was 143 nM and the “apparent KD of MS2 coat protein” value (input ligand: none) stood at 118 nM.
For “CUAGUAUAUCAGGAUAUGAUUUUAUAUAUUGGAUCAGAAGGGAUAACAUGAGGAUCACCCAUGUUAAGGAGUGA [JR_Ex6_Sub040] (Eterna round: R97, puzzle: Exclusion 6)” the same measures were 155 nM and 45 nM.
On the same counts, the results for “CUCAAAAGUCGGUUUACACACAUGAGGAUCACCCAUGUAAGCAAACAUAUAGGCUCUACGAUUUGCUCGCUCUUAUA [Eternabot (L1) Solution 34] (Eterna round: R97, puzzle: Sensor, turn-off variant 1)” are 13.5 nM and 13.2 nM.
“CUCAGGGUGCAGGAUAUCAUGGGAUAUCCCACCUGAGAAGGGCGAACAUGAGGAUCACCCAUGUGAGUGGGAGA [Eternabot (L2) Solution 85] (Eterna round: R97, puzzle: Exclusion 6)”: the “apparent KD of MS2 coat protein” value (input ligand: FMN 200 uM) came out at 488 nM and the “apparent KD of MS2 coat protein” value (input ligand: none) was found to be 441 nM.
For “CUCAUGUCAGGAUAUCAGGCAGGAAGCUGCCAAAAGUGGGAUGAGAAGGGACAUGAGGAUCACCCAUGUAAAUA [Mazasoti] (Eterna round: R97, puzzle: Exclusion 4)” the same measures were 355 nM and 218 nM.
As for “CUCAUGUCAGGAUAUCUACAUUAAAUUGGUAACCAAGCAUGAGAGAAGGGACAUGAGGAUCACCCAUGUAAAAC [Cegeange] (Eterna round: R97, puzzle: Exclusion 4)”, the “apparent KD of MS2 coat protein” value runs as follows: (input ligand: FMN 200 uM) 44 nM; (input ligand: none) 27.5 nM.
For “CUCAUGUGAGGAUAUCACAUAGCGUCACGGCUGUAACAUUUUGAGAAGGCACAUGAGGAUCACCCAUGUGACAC [Eternabot (L2) Solution 79] (Eterna round: R97, puzzle: Exclusion 4)” the same measures were 104 nM and 46.6 nM.
As to “CUCAUGUGAGGAUAUCAGUAGUGAUACGAUAGUAUUACUGCUGAGAAGGUACAUGAGGAUCACCCAUGUUCCUC [Exclusion 4 - Mod Omei Ex4 344 mod 4 v.3] (puzzle: Exclusion 4)”, the “apparent KD of MS2 coat protein” value under setting [2] is 26.9 nM.
Regarding “CUCAUGUGAGGAUAUGUGAUCAACCUUCUGUAUAGAUGAUGACAGAAGGCACAUGAGGAUCACCCAUGUAGAUC [Ex4 - 3 - 18] (puzzle: Exclusion 4)”, under setting [2], the “apparent KD of MS2 coat protein” value stood at 46.7 nM.
Turning to “CUCCUACUUGUAGGAUAUCAGAGAUAACAUGAGGAUCACCCAUGUUGGGUCAUCAACUCAGUCGGUGAGAAGGACAGAAGUUGG [Eternabot solution 42] (Eterna round: R96, puzzle: Exclusion NG 2)”, the “apparent KD of MS2 coat protein” value (input ligand: FMN 200 uM) is 96.1 nM, the “apparent KD of MS2 coat protein” value under setting [1] turned out to be 68.6 nM and the “apparent KD of MS2 coat protein” value (input ligand: none) was 63.2 nM.
In the case of “CUCCUCAUGGCGCCUAAACACAUGAGGAUCACCCAUGUAUAGGCUUUUUGCCGUCUUAUAAUAAAACCGAGGAUGCG [Rianza] (puzzle: Sensor v3, turn-off variant 1)”, the “apparent KD of MS2 coat protein” value by setting is: under setting [3], 28.7 nM; under setting [2], 276 nM; under setting [4], 21.9 nM.
Regarding “CUCCUGUAAGGAUAUCUGACAAGUGACGAAAGUCACAGUUCAGAGAAGGUACAUGAGGAUCACCCAUGUAGAAC [Exclusion 4 - Mod Brourd Ex 4-3: 41 v.2] (puzzle: Exclusion 4)”, under setting [2], the “apparent KD of MS2 coat protein” value came out at 31 nM.
Regarding “CUCGAGUCAGGAUAUGUUCCGCAUGGCAACAUGCUAUAAGAAUAGAAGGGACAUGAGGAUCACCCAUGUUAACA [Eternabot (Original) Solution 12] (Eterna round: R97, puzzle: Exclusion 4)”, the “apparent KD of MS2 coat protein” value reads like this: (input ligand: FMN 200 uM) 162 nM; (input ligand: none) 44.7 nM.
With “CUCGUGCAGCAAAGCUGUACGAGUACAUGAGGAUCACCCAUGUAGGAUAUGGUACGCAAAGCGUGCUAGAAGGACGUGUGUAAG [Mat - Exclusion NG 3 - Mod of JL - D92] (Eterna round: R96, puzzle: Exclusion NG 3)”, the “apparent KD of MS2 coat protein” value is, setting by setting: (input ligand: FMN 200 uM) 118 nM; under setting [1], 33.4 nM; (input ligand: none) 47.7 nM.
With “CUCGUGCAGCAAAGCUGUACGAGUACAUGAGGAUCACCCAUGUAGGAUAUGGUACGCAAAGCGUGCUAGAAGGAUAUGUGUAGG [Mat - Exclusion NG 3 - Mod of JL - D87] (Eterna round: R96, puzzle: Exclusion NG 3)”, the “apparent KD of MS2 coat protein” value by setting is: (input ligand: FMN 200 uM) 61.5 nM; under setting [1], 32.7 nM; (input ligand: none) 50.5 nM.
As to “CUCGUGUGAGGAUAUCCUCUUAUAUAACAAAGGUUGAAGCAGGAGAAGGCACAUGAGGAUCACCCAUGUGCAUA [EX4 C.6] (Eterna round: R97, puzzle: Exclusion 4)”, the “apparent KD of MS2 coat protein” value reads like this: (input ligand: FMN 200 uM) 46.4 nM; (input ligand: none) 16.9 nM.
On the same counts, the results for “CUCUGCACGCUGCGGUCCUACAUGAGGAUCACCCAUGUGGUCUGGUGGCGUGGGUCGCCGGACUUGGCUCGUCUUGA [salish99_S_TOV1_R5_046] (Eterna round: R97, puzzle: Sensor, turn-off variant 1)” are 19 nM and 18.7 nM.
Turning to “CUCUUGUUAGGAUAUCAAACCAGUGACGGAACCACUGGAAGUGAGAAGGGACAUGAGGAUCACCCAUGUAAGAA [Edraate] (puzzle: Exclusion 4)”, the “apparent KD of MS2 coat protein” value under setting [2] came to 52.3 nM.
With “CUGAAAUUCGUAAGGAUAUGUUCCAUCAAAUAGGAGCAGAAGGUACAUGAGGAUCACCCAUGUCAGUAGAUCCA [Eternabot (L1) Solution 47] (Eterna round: R97, puzzle: Brourd's mod of Exclusion 4)”, the “apparent KD of MS2 coat protein” value was found to be 130 nM (input ligand: FMN 200 uM) and 40.2 nM (input ligand: none).
Take “CUGAACCCGGUAGGAUAUAUUGUGGGCAAGCAUGGAACGACAUGAGGAUCACCCAUGUAAUUUAGGUAGAAGGGCCAAGAGAUU [Excl-NG2-LRO10] (Eterna round: R96, puzzle: Exclusion NG 2)”: the “apparent KD of MS2 coat protein” value was found to be 74.2 nM (input ligand: FMN 200 uM), 41.8 nM under setting [1] and 73.7 nM (input ligand: none).
In the case of “CUGAAUCGAGGAUAUACAUGAGGAUCACCCAUGUAUACUGUCUUGGUGAGAGUCCCGUGUAGAAGGCGACAGGC [EX3 B.6] (Eterna round: R97, puzzle: Exclusion 3)”, the “apparent KD of MS2 coat protein” value reads like this: (input ligand: FMN 200 uM) 60.1 nM; (input ligand: none) 35.9 nM.
With “CUGAGCAGACGAAGAUCCAACAUGAGGAUCACCCAUGUCUCAAAAGCUUUUUGCUCGUCUUAUCCUUCUCUGUUCUC [Reisedzaqu] (puzzle: Sensor v3, turn-off variant 1)”, the “apparent KD of MS2 coat protein” value runs as follows: under setting [3], 16 nM; under setting [2], 176 nM; under setting [4], 13 nM.
For “CUGAGCAGACGGAGAUCCAACAUGAGGAUCACCCAUGUCUCAAAAGCUUUUUGCUCAUCUUAUCGUACCUUGGUGCU [JL ViennaUCT Edcesobi mod 1] (puzzle: Sensor v3, turn-off variant 1)” the same measures were 406 nM, 20.2 nM and 445 nM.

The values are drawn from the supplement of paper PMC9170038.
